This is an account of results in patent US10577428B2, “Anti-factor XI monoclonal antibodies and methods of use thereof” (Oregon Health & Science University, priority 2007, dated 2020).

Like-named read-outs stand apart in the source and are kept apart here.

Series [1] concerns baboons (Papio anubis). Put plainly: Thrombosis model, collagen coated 4 mm i.d. vascular grafts in AV shunt: platelet and fibrin deposition. The format is in vivo, baboon (Papio anubis). Here is the method: A total of 39 non-terminal studies were performed on 17 normal juvenile male baboons (Papio anubis) weighing 9-11 kg. Experiments were conducted on non-anticoagulated awake animals that had chronic exteriorized arterio-venous (AV) shunts previously placed between the femoral artery and vein, as described elsewhere (Hanson et al. (1993) J. Clin. Invest. 92:2003-2012). Baseline shunt blood flow exceeded 250 ml/min in all study animals. Anxiety was managed with low dose ketamine (<2 mg/kg/hr). Platelet counts, red cell counts, and hematocrits were measured daily, before and after the experiments.
Thrombus formation was initiated within the baboon AV shunt by interposing a thrombogenic segment of prosthetic vascular graft (ePTFE, WL Gore & Co., Flagstaff, Ariz.), as previously described (Hanson et al. (1993) J. Clin. Invest. 92:2003-2012). To consistently trigger platelet-dependent thrombus formation, the clinical graft segments were coated with immobilized collagen. Twenty mm long grafts having internal diameters (i.d.) of either 2 or 4 mm were filled with equine type I collagen (1 mg/ml; Nycomed Arzenmittel, Munich, Germany) for 15 min, and then dried overnight under sterile airflow. This method produced a uniform collagen coating within the graft lumen as determined by scanning electron microscopy (FIGS. 1B and 1C). The thrombogenic collagen-coated grafts were then incorporated between segments of silicon rubber tubing, and deployed into the AV shunts (FIG. 1A). The grafts were exposed to blood for up to 60 min. During each experiment, the blood flow rate through the graft was restricted to 100 ml/min by clamping the proximal silicone rubber shunt segment, thereby producing a mean wall shear rate (MWSR) in the 4 mm grafts of 265 s^−1, while in the 2 mm grafts the initial MWSR was 2120 s^−1. Flow rates were continuously monitored using an ultrasonic flow meter (Transonics Systems, Ithaca, N.Y.). […] Baseline blood flow was restored through the permanent shunt after each experiment. In the 2 mm diameter grafts blood flow rates progressively declined due to thrombus formation. The grafts were removed from the AV shunts when the flow rate fell from 100 ml/min to below 20 ml/min, signaling imminent occlusion. The time from initiation of blood flow to graft removal (<20 ml/min blood flow) was taken as the occlusion time.
For imaging of the platelet deposition, autologous baboon platelets were labeled with 1 mCi of ^111In-oxine as previously described (Hanson et al. (1993) J. Clin. Invest. 92:2003-2012). Labeled platelets were infused and allowed to circulate for at least 1 h before studies were performed. Accumulation of labeled platelets onto thrombogenic grafts were measured in 5-min intervals using a gamma scintillation camera. Homologous ^125I-labeled baboon fibrinogen (4 μCi, >90% clottable) was infused 10 min before each study, and incorporation of the labeled fibrin within the thrombus was assessed using a gamma counter 30 days later to allow the ^111In to decay. The radioactivity deposited (cpm) was divided by the clottable fibrin(ogen) radioactivity of samples taken at the time of the original study (cpm/mg).

Another series relates to FXI. Put plainly: FXI clotting assay in vitro (FXI deficient human plasma, NBP dilutions as standards). The series is classed as biochemical, baboon. The conditions noted are these: serial dilutions of NBP as standards.
The next series has as its system baboon FXI in plasma. In words: Western blot of baboon / non-human primate plasma. The series is classed as binding. An excerpt:
Results from a Western Blot study corroborating that anti-factor XI monoclonal antibody 1A6 recognizes Factor XI in human and non-human primate plasma is shown in FIG. 7A.
In general terms: Immunoblotting shows a protein as a band on a membrane.

Series [2] deals with baboons (Papio anubis). In words: Local and systemic TAT, βTG and D-dimer during thrombus formation (4 mm grafts). The series is classed as in vivo, baboon (Papio anubis). The protocol: A novel local sampling method was used to assess the local production of thrombogenic mediators by sampling blood that superfused propagating experimental thrombi. […] All blood samples were collected into 1/10th volume 3.8% citrate anticoagulant. Systemic samples (1 ml each) were collected before initiation of thrombosis as well as 30 and 60 min into each study. A total of 6 local blood samples were drawn from the peripheral blood IBL at a rate of 100 μl/min over 10 min intervals out of a 0.64 mm port which was located 10 mm distal to the growing thrombus (FIG. 1A). […] Infusion and sampling were regulated by syringe pumps (Harvard Apparatus). Local sampling was performed only with the 4 mm i.d. devices in this study.
Blood cell counts were determined using a micro-60 automated cell counter (Horiba-ABX Diagnostics). Blood samples were divided into two aliquots and processed according to specific test requirements. All samples were placed on ice for 10 min, centrifuged at 4° C. for 10 min at 12,900 g, and the plasmas were stored at −80° C. For β-thromboglobulin (βTG) determinations, the samples were supplemented with 4 μg/ml prostaglandin E1 (PGE1), 4.3 mg/ml acetylsalicylic acid (ASA), and 50 μg/ml PPACK. Cross-reacting ELISA assays were used to determine D-dimer levels (IMUCLONE® D-Dimer, American Diagnostica; LOD: 35 ng/mL), the platelet activation marker βTG (Asserachrom®, Diagnostica Stago; LOD: 5 IU/mL), and thrombin-antithrombin complexes (TAT, Enzygnost-TAT, Dade-Behring; LOD: 2 ng/mL). All ELISA test kits utilized for these studies have previously shown sensitivity to baboon markers.

Series [3] deals with recombinant FXI proteins with mutations within the A3 domain. Put plainly: Western blot binding to recombinant FXI A3 domain alanine mutants. The conditions noted are these: 2 or 3 adjacent amino acids replaced with Alanine (FIG. 11). On the set-up: species or system human. Here is the method: Binding studies were also conducted using recombinant FXI proteins involving mutations of different amino acids within the A3 domain to determine amino acids important for the binding of monoclonal antibody 1A6. An example of the binding of monoclonal antibody 1A6 to a panel of 25 such recombinant proteins in which 2 or 3 adjacent amino acids within the A3 domain were replaced with Alanine is shown in FIG. 11. […] Based on such studies, amino acids important for the binding of monoclonal antibody 1A6 to the FXI A3 domain were determined, and are shown in FIG. 12 (amino acids 183 to 197, 203 to 204, 234 to 236, 241 to 243, 252 to 254, and 258 to 260 of SEQ ID NO:1).

In series [4] the test system is baboons. Put plainly: Observation for adverse reactions and bleeding events. The format is in vivo, baboon.
Series [5] relates to baboons. Put plainly: Standard template skin bleeding time test (Surgicutt). The format is in vivo, baboon. Here is the method:
The effects of FXI inhibition and aspirin on primary hemostasis in baboons were assessed using the standard template skin bleeding time test (Surgicutt®, International Technidyne Corp). […] All bleeding time measurements were performed by the same expert technician. For indirect assessment of hemostasis, aPTT and PT measurements were also performed.

B1: aXIMab: neutralizing murine IgG/kappa anti-human FXI monoclonal antibody from hybridoma 1A6; binds A3 domain; VH SEQ ID NO:3, VL SEQ ID NO:5 (antibody, listed as Mus musculus, V domains shown)
VH: QVTLKESGPGILKPSQTLSLTCSFSGFSLSTSGMGVGWIRQPSGKGLEWLAHIWWDDDKYYNPSLKSQLTISKDTSRNQVFLKITSVDAADTATYYCARKRSSVVAHYYAMDYWGQGTSVTVSS
VL: DIVLTQSPASLAVSLGQRATISCKASQSVDYDGDSYLNWYQQKPGQPPKLLIYAASNLESGIPARFSGSGSGTDFTLNIHPVEEEDAATYYCQQSNGDPWTFGGGTKLEIK
As usually defined, the IC99 is the concentration needed for an effect of 99%. On to B1, for which the “End-point fibrin deposition reduced compared with controls” value with baboons (Papio anubis) [1] (4 mm graft) was determined as 81%. The molecule also gave an End-point fibrin deposition with baboons (Papio anubis) [1] (4 mm graft, control 1.18±0.19) of 0.23 ± 0.07 mg. Besides, the platelet accumulation in the series on baboons (Papio anubis) [1] (10 min after graft exposure, 4 mm graft, control 0.23±0.03) is 0.13±0.03 ×10^9 platelets. Further, the “Graft platelet accumulation lower than in vehicle controls” value with baboons (Papio anubis) [1] (60 min, 4 mm graft) was found to be 63%. Moreover, in the series with baboons (Papio anubis) [1] (60 min, 4 mm graft, n=6, control 3.68±0.52), the Graft platelet accumulation was 1.38±0.26 ×10^9 platelets. In the series on baboons (Papio anubis) [1] (in vivo), the “Systemic platelet counts, change following thrombosis experiments” value is recorded as “did not change significantly”. The Systemic platelet counts with baboons (Papio anubis) [1] (prior to thrombosis studies, control 337±31) is given as 341±27 ×10^3/μl. In addition, the IC99 in the series with FXI came out at 10 nM. Also, the “recognition of FXI on Western blot” value is on record as “single band at 160 kDa” with baboon FXI in plasma and “recognizes” with baboon FXI in plasma (listed as 1A6). For the same molecule, in the series with baboons (Papio anubis) [2] (at 30 min, samples taken distal to thrombi), the “βTG release (platelet activation at thrombus surface) reduced” value was 86%. Further, in the series on baboons (Papio anubis) [2] (at 40 min), the “TAT levels by local sampling reduced” value is “up to 98%”. Further, the “Systemic βTG levels reduced” value with baboons (Papio anubis) [2] (at 60 min) is on record as 42%. Also, in the series with baboons (Papio anubis) [2] (at 60 min), the “systemic TAT levels reduced versus untreated controls” value stood at 81%. For the same molecule, the “systemic TAT levels” value in the series on baboons (Papio anubis) [2] (at 60 min, n=6, control 22.1±2.5) stood at 4.3 ± 0.5 µg/L. Further, the “Systemic βTG levels” value in the series on baboons (Papio anubis) [2] (at 60 min, n=6, vehicle 39.5±5.5) came to 23.0±2.1 IU/ml. For the same molecule, the “increase in local TAT levels” value in the series with baboons (Papio anubis) [2] (pre-treatment with aXIMab (FIG. 4A)) was “prevented the increase in local TAT levels”. Further, the “binding to FXI A3 domain mutants” value in series [3] is listed as “did not bind to some mutants”. In addition, in the series on baboons [4] (2 mg/kg i.v. bolus, 4 baboons), the “adverse reactions to the antibody” value is on record as “No adverse reactions”. Also, the adverse bleeding events result in the series on baboons [4] (one week follow-up periods of observation) is given as “No re-bleeding phenomena, petechiae, hematomas or other adverse bleeding events”. Besides, in the series with baboons [5] (FIG. 6, compared with no treatment controls), the “effect on bleeding time / hemostasis” value was “did not demonstrably impair hemostasis”. Also, in the series on baboons [5] (vehicle-treated controls 3.4±0.2 min), the “standard template bleeding time” value was determined as 3.5 ± 0.3 min.
